Reference: US20150361183A1 (published 2015)
Like-named read-outs stand apart in the source and are kept apart here. Each block holds one binder with its values, some of them ahead of it.

Assays:
[1] = biological target: C3dg (UniProt P01024 955-1303); test: SPR; thioester-coupled (clustered), steady state
[2] = biological target: T1, iC3b (UniProt P01024 23-667; P01024 749-1303; P01024 1321-1663); test: SPR; thioester-coupled (clustered), steady state
[3] = biological target: T2, C3b (UniProt P01024 749-1663; P01024 23-667); test: SPR; thioester-coupled C3b (clustered), steady state
T2 sequence (P01024 749-1663, chain 1 of 2): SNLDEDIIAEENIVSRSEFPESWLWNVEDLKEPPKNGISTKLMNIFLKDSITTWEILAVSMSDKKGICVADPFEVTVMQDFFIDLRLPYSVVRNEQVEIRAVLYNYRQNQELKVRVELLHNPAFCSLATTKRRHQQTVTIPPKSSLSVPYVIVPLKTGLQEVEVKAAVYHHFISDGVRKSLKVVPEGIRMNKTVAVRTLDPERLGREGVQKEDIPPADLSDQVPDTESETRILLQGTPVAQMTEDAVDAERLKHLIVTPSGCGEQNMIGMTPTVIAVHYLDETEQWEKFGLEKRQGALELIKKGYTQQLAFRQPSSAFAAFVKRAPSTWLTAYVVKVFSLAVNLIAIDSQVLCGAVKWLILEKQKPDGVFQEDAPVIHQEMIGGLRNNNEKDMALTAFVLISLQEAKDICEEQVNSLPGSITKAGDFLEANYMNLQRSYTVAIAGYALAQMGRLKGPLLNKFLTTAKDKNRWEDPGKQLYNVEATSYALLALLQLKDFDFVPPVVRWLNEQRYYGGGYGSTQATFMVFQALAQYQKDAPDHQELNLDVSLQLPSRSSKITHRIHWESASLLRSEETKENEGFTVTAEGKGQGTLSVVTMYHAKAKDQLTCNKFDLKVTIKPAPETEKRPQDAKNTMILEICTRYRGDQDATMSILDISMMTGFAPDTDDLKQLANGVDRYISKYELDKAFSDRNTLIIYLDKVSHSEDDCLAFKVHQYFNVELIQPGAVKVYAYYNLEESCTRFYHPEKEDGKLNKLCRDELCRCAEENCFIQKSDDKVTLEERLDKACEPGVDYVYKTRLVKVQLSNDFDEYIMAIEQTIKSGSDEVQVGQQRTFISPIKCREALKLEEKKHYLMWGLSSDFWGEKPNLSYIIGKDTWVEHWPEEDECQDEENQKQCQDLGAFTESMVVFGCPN
T2 sequence (P01024 23-667, chain 2 of 2): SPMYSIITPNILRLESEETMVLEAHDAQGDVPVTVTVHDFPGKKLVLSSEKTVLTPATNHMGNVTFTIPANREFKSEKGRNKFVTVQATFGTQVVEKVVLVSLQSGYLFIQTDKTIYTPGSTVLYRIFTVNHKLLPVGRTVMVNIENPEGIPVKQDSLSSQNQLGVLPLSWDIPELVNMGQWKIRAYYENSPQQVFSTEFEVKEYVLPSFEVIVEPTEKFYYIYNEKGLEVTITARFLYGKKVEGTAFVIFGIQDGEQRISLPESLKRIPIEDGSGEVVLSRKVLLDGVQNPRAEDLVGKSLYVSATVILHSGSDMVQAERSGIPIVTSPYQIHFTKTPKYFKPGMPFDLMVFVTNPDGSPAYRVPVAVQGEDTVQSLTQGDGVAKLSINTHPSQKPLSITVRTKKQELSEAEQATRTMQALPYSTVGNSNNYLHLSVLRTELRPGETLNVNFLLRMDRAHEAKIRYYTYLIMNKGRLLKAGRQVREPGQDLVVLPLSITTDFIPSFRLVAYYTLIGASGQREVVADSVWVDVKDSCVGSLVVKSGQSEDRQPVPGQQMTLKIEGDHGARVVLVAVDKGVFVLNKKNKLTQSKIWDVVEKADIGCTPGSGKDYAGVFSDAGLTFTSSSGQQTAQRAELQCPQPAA

[4] = biological target: T2, C3b; test: SPR; amine-coupled C3b (monomeric), steady state
[5] = biological target: T2, C3b; test: SPR; amine-coupled C3b (monomeric), steady state; remark: listed apart in the source
[6] = biological target: T1, iC3b; test: SPR; thioester-coupled (clustered), steady state; remark: listed apart in the source

T1 sequence (P01024 23-667, chain 1 of 3): as the sequence (P01024 23-667, chain 2 of 2) above
T1 sequence (P01024 749-1303, chain 2 of 3): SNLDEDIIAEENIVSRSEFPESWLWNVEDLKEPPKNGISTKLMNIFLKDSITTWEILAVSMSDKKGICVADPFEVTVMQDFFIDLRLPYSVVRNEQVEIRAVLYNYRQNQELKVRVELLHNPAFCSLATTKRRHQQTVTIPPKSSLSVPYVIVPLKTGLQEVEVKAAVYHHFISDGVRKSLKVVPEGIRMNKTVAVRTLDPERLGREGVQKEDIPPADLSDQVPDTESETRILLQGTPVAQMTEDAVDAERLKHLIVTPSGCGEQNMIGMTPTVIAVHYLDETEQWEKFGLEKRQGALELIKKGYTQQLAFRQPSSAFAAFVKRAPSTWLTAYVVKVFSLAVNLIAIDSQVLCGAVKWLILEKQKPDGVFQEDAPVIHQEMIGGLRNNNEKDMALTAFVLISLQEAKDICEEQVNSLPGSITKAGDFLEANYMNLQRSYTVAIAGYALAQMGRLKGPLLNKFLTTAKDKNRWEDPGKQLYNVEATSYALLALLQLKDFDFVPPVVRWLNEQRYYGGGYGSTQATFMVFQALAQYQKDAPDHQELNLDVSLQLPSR
T1 sequence (P01024 1321-1663, chain 3 of 3): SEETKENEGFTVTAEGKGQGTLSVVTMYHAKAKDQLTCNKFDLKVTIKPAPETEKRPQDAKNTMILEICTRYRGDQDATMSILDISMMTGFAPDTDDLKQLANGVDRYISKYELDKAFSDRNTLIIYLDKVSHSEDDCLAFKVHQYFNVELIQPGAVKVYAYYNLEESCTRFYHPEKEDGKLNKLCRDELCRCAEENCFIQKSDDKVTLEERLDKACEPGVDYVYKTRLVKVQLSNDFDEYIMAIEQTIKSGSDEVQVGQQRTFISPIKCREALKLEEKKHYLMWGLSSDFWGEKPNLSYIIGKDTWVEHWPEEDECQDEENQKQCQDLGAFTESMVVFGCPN
Sequence of C3dg (P01024 955-1303): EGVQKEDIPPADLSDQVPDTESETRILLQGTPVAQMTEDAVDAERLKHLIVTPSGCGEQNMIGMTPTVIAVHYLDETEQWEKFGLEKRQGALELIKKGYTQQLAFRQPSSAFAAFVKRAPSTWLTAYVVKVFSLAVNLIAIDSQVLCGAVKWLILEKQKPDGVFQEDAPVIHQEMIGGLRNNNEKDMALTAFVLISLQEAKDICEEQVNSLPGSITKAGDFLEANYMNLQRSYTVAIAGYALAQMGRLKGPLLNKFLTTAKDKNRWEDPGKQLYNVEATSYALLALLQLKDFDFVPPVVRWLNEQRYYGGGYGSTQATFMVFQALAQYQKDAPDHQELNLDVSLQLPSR

Kd [1]: 270 nM
Kd [2]: 270 nM
Kd [3]: 310 nM
Kd [4]: 3800 nM
B1: CFHR5 (complement factor H-related protein 5), wild type (other)
chain: EGTLCDFPKIHHGFLYDEEDYNPFSQVPTGEVFYYSCEYNFVSPSKSFWTRITCTEEGWSPTPKCLRMCSFPFVKNGHSESSGLIHLEGDTVQIICNTGYSLQNNEKNISCVERGWSTPPICSFTKGECHVPILEANVDAQPKKESYKVGDVLKFSCRKNLIRVGSDSVQCYQFGWSPNFPTCKGQVRSCGPPPQLSNGEVKEIRKEEYGHNEVVEYDCNPNFIINGPKKIQCVDGEWTTLPTCVEQVKTCGYIPELEYGYVQPSVPPYQHGVSVEVNCRNEYAMIGNNMITCINGIWTELPMCVATHQLKRCKIAGVNIKTLLKLSGKEFNHNSRIRYRCSDIFRYRHSVCINGKWNPEVDCTEKREQFCPPPPQIPNAQNMTTTVNYQDGEKVAVLCKENYLLPEAKEIVCKDGRWQSLPRCVESTAYCGPPPSINNGDTTSFPLSVYPPGSTVTYRCQSFYKLQGSVTVTCRNKQWSEPPRCLDPCVVSEENMNKNNIQLKWRNDGKLYAKTGDAVEFQCKFPHKAMISSPPFRAICQEGKFEYPICE

Kd [5]: 1700 nM
Kd [6]: 2600 nM
B2: Complement factor H (CFH) (other)
chain: EDCNELPPRRNTEILTGSWSDQTYPEGTQAIYKCRPGYRSLGNVIMVCRKGEWVALNPLRKCQKRPCGHPGDTPFGTFTLTGGNVFEYGVKAVYTCNEGYQLLGEINYRECDTDGWTNDIPICEVVKCLPVTAPENGKIVSSAMEPDREYHFGQAVRFVCNSGYKIEGDEEMHCSDDGFWSKEKPKCVEISCKSPDVINGSPISQKIIYKENERFQYKCNMGYEYSERGDAVCTESGWRPLPSCEEKSCDNPYIPNGDYSPLRIKHRTGDEITYQCRNGFYPATRGNTAKCTSTGWIPAPRCTLKPCDYPDIKHGGLYHENMRRPYFPVAVGKYYSYYCDEHFETPSGSYWDHIHCTQDGWSPAVPCLRKCYFPYLENGYNQNYGRKFVQGKSIDVACHPGYALPKAQTTVTCMENGWSPTPRCIRVKTCSKSSIDIENGFISESQYTYALKEKAKYQCKLGYVTADGETSGSITCGKDGWSAQPTCIKSCDIPVFMNARTKNDFTWFKLNDTLDYECHDGYESNTGSTTGSIVCGYNGWSDLPICYERECELPKIDVHLVPDRKKDQYKVGEVLKFSCKPGFTIVGPNSVQCYHFGLSPDLPICKEQVQSCGPPPELLNGNVKEKTKEEYGHSEVVEYYCNPRFLMKGPNKIQCVDGEWTTLPVCIVEESTCGDIPELEHGWAQLSSPPYYYGDSVEFNCSESFTMIGHRSITCIHGVWTQLPQCVAIDKLKKCKSSNLIILEEHLKNKKEFDHNSNIRYRCRGKEGWIHTVCINGRWDPEVNCSMAQIQLCPPPPQIPNSHNMTTTLNYRDGEKVSVLCQENYLIQEGEEITCKDGRWQSIPLCVEKIPCSQPPQIEHGTINSSRSSQESYAHGTKLSYTCEGGFRISEENETTCYMGKWSSPPQCEGLPCKSPPEISHGVVAHMSDSYQYGEEVTYKCFEGFGIDGPAIAKCLGEKWSHPPSCIKTDCLSLPSFENAIPMGEKKDVYKAGEQVTYTCATYYKMDGASNVTCINSRWTGRPTCRDTSCVNPPTVQNAYIVSRQMSKYPSGERVRYQCRSPYEMFGDEEVMCLNGNWTEPPQCKDSTGKCGPPPPIDNGDITSFPLSVYAPASSVEYQCQNLYQLEGNKRITCRNGQWSEPPKCLHPCVISREIMENYNIALRWTAKQKLYSRTGESVEFVCKRGYRLSSRSHTLRTTCWDGKLEYPTCAKR
